Consider one molecule from PMC3245711.

The target in the experiment is T1, human KCNJ2 channel (pND-CTFH construct, C-terminal FLAG and octa-histidine tags) (human), P63252.
T1 chain: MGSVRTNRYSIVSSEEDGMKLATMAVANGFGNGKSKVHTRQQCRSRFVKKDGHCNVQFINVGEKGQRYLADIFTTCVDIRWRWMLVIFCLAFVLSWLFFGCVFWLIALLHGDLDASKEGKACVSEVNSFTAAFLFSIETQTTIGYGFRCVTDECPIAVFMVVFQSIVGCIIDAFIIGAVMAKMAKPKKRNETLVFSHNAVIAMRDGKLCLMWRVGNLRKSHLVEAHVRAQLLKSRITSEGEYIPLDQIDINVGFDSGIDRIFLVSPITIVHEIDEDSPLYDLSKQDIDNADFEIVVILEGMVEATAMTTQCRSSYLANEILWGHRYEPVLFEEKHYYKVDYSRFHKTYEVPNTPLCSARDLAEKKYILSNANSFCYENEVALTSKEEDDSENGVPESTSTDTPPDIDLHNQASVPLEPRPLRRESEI
As to the kind of experiment: SEC. As to conditions: remark: other sources report otherwise.

B1: human KCNJ2 channel (pND-CTFH construct, C-terminal FLAG and octa-histidine tags), P63252 1-427 (natural protein)
chain: T1 chain
The stoichiometry N is a count of units in the complex or per binding partner. In the case of B1, the stoichiometry N was found to be 4.
